Laboratory results published in article PMC6309364.

Biological target: _(SUMO)BMC-HRmm (SUMOylated BMC-H protein of Mycobacterium smegmatis) (Mycobacterium smegmatis)
Test: SEC

- stoichiometry N: 6
Substance: _(SUMO)BMC-HRmm (SUMOylated BMC-H protein of Mycobacterium smegmatis) (natural protein)
